The results in this text go back to article PMC12859517.

The term stoichiometry N denotes the number of molecules, sites or subunits per partner or assembly.

In test [1] the target is Full-length MctBsm (MctB of M. smegmatis) (M. smegmatis). Nature of the test: SDS-PAGE under mild conditions with Western blot; 0.1% SDS in loading buffer, no reducing agent, not boiled, run in an ice bath; protein purified in OPOE; gel slices eluted with OPOE and run again.
Test [2] shares this target.

For the substance “Full-length MctBsm (MctB of M. smegmatis) (natural protein)”, the stoichiometry N in test [1] was more than 2. In test [2], the channel insertions in lipid bilayer experiments (DphPC, 1 M KCl, 10 mM Hepes pH 7.0, 100 mV), purified MctBsm before fractionation was found to be 20 pS.
